Where no end group is shown, it is not given here.

The experiment deals with T1, CBX1 chromodomain.
T1 construct: Chromodomain of Chromobox protein 1 (CBX1); Expression, purification and construct limits are in the Supporting Information; also called Chromobox protein 1
The experiment can be described thus: ITC; CBX1 chromodomain and eIF4A3 K374me0/1/2/3 peptides. The note with it: both partners purified. In general terms: In ITC the heat of successive injections is recorded.

B1: eIF4A3-K374me2 peptide 23 (peptide)
chain: GRSGRYGRKGVAINFVK
modifications: also: dimethyllysine at K374
Regarding B1, the Kd (commonly the concentration at which binding is half-saturated) was determined as 95.2 ± 1.4 µM.

B2: eIF4A3-K374me3 peptide 13 (peptide)
chain: GRSGRYGRKGVAINFVK
modifications: also: trimethyllysine at K374
Take B2: the affinity, expressed as Kd, was 23.2 ± 2 µM.
